The supplement of paper PMC7125110
± gives the standard error. This sample holds only a part of the variants without activity.

B1: glmS ribozyme (parent)
chain: AUAAAAGCGCCAGAACUACAGAAAUGUAGUUGACGAGGAGGAGGUUUAUCGAAUUUUCGGCGGAUGCCUCCAAA

Variants of: B1
Assay: self-cleavage kobs at 10000 uM GlcN6P; higher = faster cleavage; RNA array
Details: with glucosamine-6-phosphate
Outline: (§1)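 kcat and KM were obtained from weighted Michaelis–Menten fits across concentrations of kobs values. Those came from one- or two-exponential decay fits to per-tile medians normalised to baseline and to non-cleaving reference variants. The variants were barcoded ribozymes transcribed in situ by E. coli RNA polymerase on sequenced MiSeq chips and tracked through a hybridised Cy3 probe at 37 °C, with 40 μM to 10 mM glucosamine-6-phosphate in HEPES/KCl/Mg(OAc)2 buffer flowed in.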

| Variant | self-cleavage kobs at 10000 uM GlcN6P |
| --- | --- |
| C8G A15C G40A G41U C50U C70G | < 1e-05 s⁻¹ |
| G35C A42G U45G | < 1e-05 s⁻¹ |
| G60A C68U C70U | < 1e-05 s⁻¹ |
| G29A A64G C67G | 5.14e-05 ± 2e-05 s⁻¹ |
| G38U A53U U69G | 0.000134 ± 3.5e-05 s⁻¹ |
| C8A A12G U31G A39U | < 1e-05 s⁻¹ |
| G32U U46C | 0.000136 ± 1.8e-05 s⁻¹ |
| A14U C34U C68G | 7.15e-05 ± 2.1e-05 s⁻¹ |
| U49A U54C C67G | < 1e-05 s⁻¹ |
| A6U C10U G44A C50U | < 1e-05 s⁻¹ |
| G29C U46A | 7.43e-05 ± 1.7e-05 s⁻¹ |
| C8U G29A U31G | < 1e-05 s⁻¹ |
| A14C A52G C61A | < 1e-05 s⁻¹ |
| A36U G40A G43C A52G | 0.00106 ± 0.00036 s⁻¹ |
| C34A G35C A48U | < 1e-05 s⁻¹ |
| A14U G35C G41A U46A | < 1e-05 s⁻¹ |
| A14C A48C G59U | < 1e-05 s⁻¹ |
| G32C G38C G60U C67G | < 1e-05 s⁻¹ |
| G35U G41U C67G | < 1e-05 s⁻¹ |
| G7U C50G G51A C70G | 6.12e-05 ± 1.7e-05 s⁻¹ |
| A12C G29C C70U | 0.00119 ± 0.00031 s⁻¹ |
| C11U A15G C16U C50G U54G U56A U69C | < 1e-05 s⁻¹ |
| G29A C34G C67U | < 1e-05 s⁻¹ |
| C16G G32C C70U A73C | 0.000111 ± 1.7e-05 s⁻¹ |
| U31C U45A A52G C68U | 0.000129 ± 3.8e-05 s⁻¹ |
| A15U C16G G32C | 8.84e-05 ± 2.6e-05 s⁻¹ |
| C16G G29U C58A | 0.000585 ± 0.00014 s⁻¹ |
| G7A A39U G43U | < 1e-05 s⁻¹ |

| Variant | self-cleavage kobs at 10000 uM GlcN6P |
| --- | --- |
| C16A G38A A48C | < 1e-05 s⁻¹ |
| U45C U65G C70U | 0.000225 ± 6.1e-05 s⁻¹ |
| G9A G43A U57A U65A U69A C71A | < 1e-05 s⁻¹ |
| A14C A33G C58G U65C | < 1e-05 s⁻¹ |
| G7A G41A A53C | < 1e-05 s⁻¹ |
| A53C U69C | 0.00127 ± 0.00031 s⁻¹ |
| A15U G29C U47G U54A | 0.000122 ± 2.4e-05 s⁻¹ |
| C8A G44A U46G C70G | < 1e-05 s⁻¹ |
| U31A G66C | 0.000307 ± 9.3e-05 s⁻¹ |
| A42G C58G U69C | 0.000133 ± 3.8e-05 s⁻¹ |
| A12C G38U A52U C58A U65A C67U | < 1e-05 s⁻¹ |
| G32U U45G U46C C67A | 7.22e-05 ± 2e-05 s⁻¹ |
| A6G C58U A64U | < 1e-05 s⁻¹ |
| U31C G35A G40C C58U G60A | < 1e-05 s⁻¹ |
| A42C C50U C68A C70A | < 1e-05 s⁻¹ |
| U54G C67U C68U | 0.000147 ± 2.9e-05 s⁻¹ |
| C11U U55G U65A | 4.36e-05 ± 2e-05 s⁻¹ |
| U47A G59A C71U | 6.73e-05 ± 2.5e-05 s⁻¹ |
| A64G C70A | 3.24e-05 ± 9.8e-06 s⁻¹ |
| C34U U54G G63U | < 1e-05 s⁻¹ |
| U45A A53G U55A U65A C67A | 0.000759 ± 0.00025 s⁻¹ |
| A39U A48G G60A | < 1e-05 s⁻¹ |
| C8A A15G G32U G44U C67A | < 1e-05 s⁻¹ |
| A33C U46C | 4.16e-05 ± 1.7e-05 s⁻¹ |
| A6U G7U G9C | < 1e-05 s⁻¹ |
| C8A C34A A64G | < 1e-05 s⁻¹ |
| A64G U65C | 0.000113 ± 1.6e-05 s⁻¹ |

Variants of: B1
Assay: self-cleavage kobs at 2500 uM GlcN6P; higher = faster cleavage; RNA array
Details: with glucosamine-6-phosphate
Outline: as §1

| Variant | self-cleavage kobs at 2500 uM GlcN6P |
| --- | --- |
| C8G G9A A14U U31G A39C U47A A64G C70U | < 1e-05 s⁻¹ |
| C10U A48C C58U | < 1e-05 s⁻¹ |
| G32U U46C | 3.86e-05 ± 1.4e-05 s⁻¹ |
| A6U A15G C16U | 5.09e-05 ± 1.6e-05 s⁻¹ |
| G7A C8G G63U | < 1e-05 s⁻¹ |
| A12C U46C C70A | 3.42e-05 ± 1.2e-05 s⁻¹ |
| G7A C16U U47C C58G | < 1e-05 s⁻¹ |
| A33C A39G C70A | < 1e-05 s⁻¹ |
| A15G U56G C58U | 3.75e-05 ± 1.4e-05 s⁻¹ |
| G32A C34G C71U | < 1e-05 s⁻¹ |
| U31A C34A C71U | < 1e-05 s⁻¹ |
| A6C A48C G51U | < 1e-05 s⁻¹ |
| G35U U54C C58A | < 1e-05 s⁻¹ |
| G35A A42G U45G | < 1e-05 s⁻¹ |
| C34U G40A G41C A48C A52G | < 1e-05 s⁻¹ |
| G37C G41U A48C | < 1e-05 s⁻¹ |

| Variant | self-cleavage kobs at 2500 uM GlcN6P |
| --- | --- |
| G13U A36G G38C C50A | < 1e-05 s⁻¹ |
| A6U C8G G44C A53G | < 1e-05 s⁻¹ |
| A36G G41A C67U | < 1e-05 s⁻¹ |
| A15C A36C A48U | < 1e-05 s⁻¹ |
| C34U U54G G63U | < 1e-05 s⁻¹ |
| G9A G35C A64C C71U | < 1e-05 s⁻¹ |
| C58U U65A C68G | 0.000102 ± 3.1e-05 s⁻¹ |
| A36G U49G U55G | < 1e-05 s⁻¹ |
| G43U A48C C61G | < 1e-05 s⁻¹ |
| A6G A14G G40A | 3.86e-05 ± 1.1e-05 s⁻¹ |
| C8A A15G G32U G44U C67A | < 1e-05 s⁻¹ |
| G13A A36G C58G C68G | 0.000157 ± 5.4e-05 s⁻¹ |
| U55A A64C C71U | 7.29e-05 ± 3.2e-05 s⁻¹ |
| A64G U65C | 8.88e-05 ± 2.5e-05 s⁻¹ |
| G7U C8U G41C C70G | < 1e-05 s⁻¹ |
